Measurements taken from article doi:10.1101/2022.09.13.507797 (bioRxiv, 2022).

Tests used:
[1] = target: T1, mouse factor H (mouse, UniProt P06909 19-1234); assay: SPR
[2] = target: T1, mouse factor H; assay: ELISA
[3] = target: human factor H (human, UniProt P08603 19-1231); assay: ELISA
human factor H, sequence (P08603 19-1231): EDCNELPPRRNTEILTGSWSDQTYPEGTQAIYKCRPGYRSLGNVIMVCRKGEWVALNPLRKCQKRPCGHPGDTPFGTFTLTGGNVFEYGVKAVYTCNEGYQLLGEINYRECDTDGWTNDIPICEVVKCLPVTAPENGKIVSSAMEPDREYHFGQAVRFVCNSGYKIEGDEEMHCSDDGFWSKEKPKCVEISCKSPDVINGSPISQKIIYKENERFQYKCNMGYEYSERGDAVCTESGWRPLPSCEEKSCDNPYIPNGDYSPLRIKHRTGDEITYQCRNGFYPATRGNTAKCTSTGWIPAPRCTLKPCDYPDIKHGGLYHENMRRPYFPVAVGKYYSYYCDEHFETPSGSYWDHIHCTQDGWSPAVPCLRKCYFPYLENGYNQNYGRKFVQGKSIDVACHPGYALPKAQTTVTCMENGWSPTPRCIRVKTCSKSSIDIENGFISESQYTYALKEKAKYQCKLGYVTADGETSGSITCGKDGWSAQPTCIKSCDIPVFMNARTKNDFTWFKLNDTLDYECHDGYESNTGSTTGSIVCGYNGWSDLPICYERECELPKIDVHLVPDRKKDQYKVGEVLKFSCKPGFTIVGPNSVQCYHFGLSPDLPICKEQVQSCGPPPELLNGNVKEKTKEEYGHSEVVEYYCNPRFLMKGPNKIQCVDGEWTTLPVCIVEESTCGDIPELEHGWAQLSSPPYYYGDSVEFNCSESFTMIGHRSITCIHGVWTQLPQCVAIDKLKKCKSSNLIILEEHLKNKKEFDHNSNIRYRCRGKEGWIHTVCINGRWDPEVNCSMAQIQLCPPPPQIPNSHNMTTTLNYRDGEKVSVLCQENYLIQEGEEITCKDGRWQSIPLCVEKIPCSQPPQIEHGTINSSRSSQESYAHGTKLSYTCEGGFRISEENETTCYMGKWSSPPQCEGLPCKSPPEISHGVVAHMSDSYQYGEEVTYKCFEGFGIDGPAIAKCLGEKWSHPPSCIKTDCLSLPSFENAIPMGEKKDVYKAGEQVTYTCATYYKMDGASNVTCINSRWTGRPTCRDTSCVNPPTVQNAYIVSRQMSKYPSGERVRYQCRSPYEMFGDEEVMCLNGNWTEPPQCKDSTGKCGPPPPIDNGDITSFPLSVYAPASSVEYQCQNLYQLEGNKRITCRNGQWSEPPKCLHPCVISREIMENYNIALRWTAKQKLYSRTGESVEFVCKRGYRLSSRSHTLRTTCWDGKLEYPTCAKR

T1 sequence (P06909 19-1234): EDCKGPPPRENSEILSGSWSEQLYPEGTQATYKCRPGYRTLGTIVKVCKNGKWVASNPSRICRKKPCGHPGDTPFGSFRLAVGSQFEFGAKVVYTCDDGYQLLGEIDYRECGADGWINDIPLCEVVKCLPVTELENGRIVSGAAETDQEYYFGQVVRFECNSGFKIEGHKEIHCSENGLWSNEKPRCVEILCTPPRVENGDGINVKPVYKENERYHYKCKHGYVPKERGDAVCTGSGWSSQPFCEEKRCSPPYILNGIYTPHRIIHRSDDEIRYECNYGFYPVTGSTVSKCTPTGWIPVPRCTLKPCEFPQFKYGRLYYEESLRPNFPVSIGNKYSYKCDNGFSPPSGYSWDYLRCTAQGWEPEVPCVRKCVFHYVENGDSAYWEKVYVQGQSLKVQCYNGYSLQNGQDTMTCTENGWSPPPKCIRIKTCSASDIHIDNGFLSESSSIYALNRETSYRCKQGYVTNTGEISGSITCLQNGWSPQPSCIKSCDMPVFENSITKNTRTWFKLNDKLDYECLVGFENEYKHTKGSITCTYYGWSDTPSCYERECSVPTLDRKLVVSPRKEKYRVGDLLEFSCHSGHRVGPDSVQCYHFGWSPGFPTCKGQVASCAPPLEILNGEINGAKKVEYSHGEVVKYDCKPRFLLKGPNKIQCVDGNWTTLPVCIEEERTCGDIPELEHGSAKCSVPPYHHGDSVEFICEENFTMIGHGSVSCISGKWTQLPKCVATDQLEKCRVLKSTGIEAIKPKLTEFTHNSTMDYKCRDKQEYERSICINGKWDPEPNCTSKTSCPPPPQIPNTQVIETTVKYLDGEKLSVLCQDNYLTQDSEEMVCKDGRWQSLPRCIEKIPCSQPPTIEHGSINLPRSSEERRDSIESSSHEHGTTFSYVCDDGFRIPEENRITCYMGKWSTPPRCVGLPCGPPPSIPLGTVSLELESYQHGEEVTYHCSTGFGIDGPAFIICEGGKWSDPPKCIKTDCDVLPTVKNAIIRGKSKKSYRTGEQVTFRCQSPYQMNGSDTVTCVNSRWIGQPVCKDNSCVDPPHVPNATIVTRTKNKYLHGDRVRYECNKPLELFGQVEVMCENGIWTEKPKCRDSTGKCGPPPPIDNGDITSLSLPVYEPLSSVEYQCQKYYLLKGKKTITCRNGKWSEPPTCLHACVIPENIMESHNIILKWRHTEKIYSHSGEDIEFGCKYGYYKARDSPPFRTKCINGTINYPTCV

B1: CspZ from B. burgdorferi B31 (CspZB31), untagged recombinant protein (natural protein, Borrelia burgdorferi strain B31)
chain: RLNQRNINELKIFVEKAKYYSIKLDAIYNECTGAYNDIMTYSEGTFSDQSKVNQAISIFKKDNKIVNKFKELEKIIEEYKPMFLSKLIDDFAIELDQAVDNDVSNARHVADSYKKLRKSVVLAYIESFDVISSKFVDSKFVEASKKFVNKAKEFVEENDLIALECIVKTIGDMVNDREINSRSRYNNFYKKEADFLGAAVELEGAYKAIKQTLL
Question: Does B1 bind [1]?
Answer: Result: binds

B2: histidine-tagged CspZB31 (natural protein, Borrelia burgdorferi strain B31)
chain: RLNQRNINELKIFVEKAKYYSIKLDAIYNECTGAYNDIMTYSEGTFSDQSKVNQAISIFKKDNKIVNKFKELEKIIEEYKPMFLSKLIDDFAIELDQAVDNDVSNARHVADSYKKLRKSVVLAYIESFDVISSKFVDSKFVEASKKFVNKAKEFVEENDLIALECIVKTIGDMVNDREINSRSRYNNFYKKEADFLGAAVELEGAYKAIKQTLL
Question: Does B2 bind [2]?
Answer: Result: binds

Question: Does B2 bind [3]?
Answer: Result: binds
